Measured values from the DeepSol protein solubility set.

Assay: soluble on expression in E. coli; label from the status in PepcDB or PDB records

Sequence | soluble on expression in E. coli
MKVEKFKVLLYLKKSEPDKNGKAPIMGRITLNRTMAQFSCKLSCTPELWNARESRLNGKSRKAVETNEKIERLLLAVHSAFNSLMERKKDFDAAAVRDMFQGNAGIQMTLLKLLDRHNGEMKARVGVDRAPTTLSTYLFTYRTLSEFIKAKFKVSDLAFGQLNEQFIRDYQDFILMEKGHAVDTLRGYLAILKKICRIAYKEGHSEKYHFCHFKLPKQKESTPKALSRENFEKLRDLEIPEKRRSHVITRDLFLFACYTGTAYADVVSITRENLFTDEENNLWLKYRRKKTNYLGRVKLLPEALVLIEKYRDDARMTLFPPQDYHTLRANMKSLRLMAGLSQDLVYHTARHSFASLITLEEGVPIETISKMLGHSNIKTTQIYARVTPKRLFEDMDRFIEATRDLKLIL | not soluble
MAEITFKGGPVTLVGQEVKVGDQAPDFTVLTNSLEEKSLADMKGKVTIISVIPSIDTGVCDAQTRRFNEEAAKLGDVNVYTISADLPFAQARWCGANGIDKVETLSDHRDMSFGEAFGVYIKELRLLARSVFVLDENGKVVYAEYVSEATNHPNYEKPIEAAKALVK | soluble
MSVMADRLDNMDITVSSPDGNIEGRYRRRGELTLEFRGDAYEQYRQHTLEHQLARLATLLWTGYQREYDAAVSEVVGHPVKDERHLWDANRRRYREAQRATAASGMSAGGRVYIENTGMLSWHVVIRDGTLGELTAAEFASECLSAFDALWRDYRSKMAALRAEHYGLSFASKRRERQPRH | not soluble
MGSDKIHHHHHHMSLASFNPRVARLATPPIPSVFGWGRAYDAAAGPLIDLSQAAPGHPPHADLLAWLAQAAGSAEACGYGAIEGELVLRRAYCTHLSELYGAAFTPEQIHITAGANQAFICAAMALAGAGERIALTDPFYFNHDTTLAMLGIETVALPCDSDNGFLPDLDRAEQVVKSGIKALALVTPNNPTGAVYPKELLADLYRLCRAHGVWLIVDETYRDFLNPEFGRPHELFSQPDWPEGLIQIYSFSKSFAIPGHRLAAICAGGPVVEQIAKIMDNLQICAPRAAQIALAKALPVLDGWRAENAAEIARRTVALRRAFDLVPQWHLASIGAYFAFARHPFGQAASIDVAEQLARRAGILAVPGGFFGSRQEGYLRLAFANVDCPTIETLPDRLRTFTLAG | not soluble
MRVLVTGGAGFIGSSFVRYIVNTTDWEVLVYDKLTYAGRLENLHDVIDRIGFMRGDIADEEQFGRVLTEFEPDVVVNFAAETHVDRSINEPAPFMRTNIIGVFTILEAIRKRIDQIVLLHVSTDEVYGDLWNTGKEATESDPLNPSSPYSASKASGDLLIKAYGRTYGLKYRIVRPCNNYGPYQHVEKLIPRTIIRILHGKPPVIYGDGSQIRDWLYVEDTARAIHVVLEKGVDGEIYNVCGGMASTVKDIVVNILESMGKPRDYLVYGKSRPGEDRRYAMKCDKIRNLGWAPHVTLKEGLKITVKWYIENRWWWRPLLDKRYVLADHPW | soluble
MGSDKIHHHHHHGREEKTVYDFPLEQSLKSDKEVSLNKELLAPYLMCSYDSTLCLIDWTANPMVHVYNMNTGKEMVAFGNKGMGPDDFLSISQMYVDMGKRSLLLYDQSLQTISSFQIDSLAQGSLSKIDCVSAPKLGMNRVYAYSDSIFYGSGTFESGLIAKCNQKEILNQYLPFPHTEQAVNRDVNYLLFQGDLIMKPDKKRFAYLAYECDLLSIQKVVNDTCLESVVHLNTYTPVFENQSTNEVSSVNVSTDSPKGFLRGVATENYVYALYSGQIGKNKAIANEVYVFDWEGRAVKKVILDRWGICISVDSNDERLCLMTKETDGGEERYHYYCYQLN | not soluble
MGSDKIHHHHHHMKIAQIAPLFEAVPPRLYGGTERVVASICDALVKAGHQVDLYASGDSQSKARLIPCRERALRLDPAPLKSDIAAHYTLLDEVRRHAGEYDILHFHTDMLHFPFFEPIASKTLTTLHGRLDMADLPNAFKRWRQFPLVSISNDQRRALPGANWAGTVYHGLDPALYRFNPNPQGGYLAFLGRISPEKRPDRAIAIARKAGIPLKIAAKVDAADLNYYNDVIKPLLNQADVEFIGEITDAQKNDFLGNALALLFPVDWPEPFGLVMIEAMACGTPVIAWRCGSVPEIIEPGRNGFIVTDEHQAAAACHAATTLDRAKVREAFDMRFTSDVMAEHYLKLYKRLAASANDDNLMESQVG | not soluble
MDLKKLLPCGKVIVFRKGEIVKHQDDPIEDVLILLEGTLKTEHVSENGKTLEIDEIKPVQIIASGFIFSSEPRFPVNVVAGENSKILSIPKEVFLDLLMKDRELLLFFLKDVSEHFRVVSEKLFFLTTKTLREKLMNFLVRHMNEKRELTLPVTLEELSRLFGCARPALSRVFQELEREGYIEKHGRRIKVLKNPFEHDRI | not soluble
